Like-named read-outs stand apart in the source and are kept apart here.
Assays:
[1] = target: T1, IHF from Staphylococcus aureus (Staphylococcus aureus, UniProt Q5HFV0 1-90); test: ELISA on IHF from S. aureus (IHF-Sa ELISA), OD 450 nm against [mAb] nM
T1 construct: mature; not shown: poly-histidine tag
T1 sequence: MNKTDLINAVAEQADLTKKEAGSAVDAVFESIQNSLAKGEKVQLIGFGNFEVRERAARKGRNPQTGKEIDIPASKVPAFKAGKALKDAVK

[2] = target: T1, IHF from Staphylococcus aureus; test: as above; remark: listed apart in the source
[3] = target: IHF from Staphylococcus aureus (Staphylococcus aureus) (UniProt Q5HFV0); test: ELISA
[4] = target: T2, IHF from Pseudomonas aeruginosa (Pseudomonas aeruginosa, UniProt Q51472 2-100); test: ELISA at pH 7.5
T2 construct: mature; also called IHF (Pa); P. aeruginosa; not shown: poly-histidine tag
T2 sequence: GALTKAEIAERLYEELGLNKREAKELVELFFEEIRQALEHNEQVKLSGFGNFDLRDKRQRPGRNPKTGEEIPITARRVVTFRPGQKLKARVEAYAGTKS

[5] = target: T1, IHF from Staphylococcus aureus; test: ELISA at pH 7.5
[6] = target: T3, IHF from Klebsiella pneumoniae (Klebsiella pneumoniae, UniProt A6TAI1 1-99); test: ELISA at pH 7.5
T3 construct: also called IHF (Kp); K. pneumoniae
T3 sequence: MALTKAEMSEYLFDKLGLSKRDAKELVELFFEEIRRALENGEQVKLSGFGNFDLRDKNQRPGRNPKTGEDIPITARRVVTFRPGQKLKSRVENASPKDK

[7] = target: T2, IHF from Pseudomonas aeruginosa; test: ELISA at pH 6.5
[8] = target: T1, IHF from Staphylococcus aureus; test: ELISA at pH 6.5
[9] = target: T3, IHF from Klebsiella pneumoniae; test: ELISA at pH 6.5
[10] = target: T2, IHF from Pseudomonas aeruginosa; test: ELISA at pH 4.5
[11] = target: T1, IHF from Staphylococcus aureus; test: ELISA at pH 4.5
[12] = target: T3, IHF from Klebsiella pneumoniae; test: ELISA at pH 4.5
[13] = target: T2, IHF from Pseudomonas aeruginosa; test: ELISA at pH 5.5
[14] = target: T1, IHF from Staphylococcus aureus; test: ELISA at pH 5.5
[15] = target: T3, IHF from Klebsiella pneumoniae; test: ELISA at pH 5.5
[16] = target: T2, IHF from Pseudomonas aeruginosa; test: ELISA at pH 2.5
[17] = target: T1, IHF from Staphylococcus aureus; test: ELISA at pH 2.5
[18] = target: T3, IHF from Klebsiella pneumoniae; test: ELISA at pH 2.5
[19] = target: T2, IHF from Pseudomonas aeruginosa; test: ELISA at pH 3.5
[20] = target: T1, IHF from Staphylococcus aureus; test: ELISA at pH 3.5
[21] = target: T3, IHF from Klebsiella pneumoniae; test: ELISA at pH 3.5

B1: TRL1337 (antibody, V domains shown)
VH: QVQLLESGPGLVKPSETPSLTCTVSGGSIRSYYWSWIRQPPGKGLEWIGYIYYSGSTNYNPSLKSRVTISVDMSKNQFSLKLSSVTAADTAMYYCARVYGGSGSYDFDYWGQGTLVTVSS
VL: DIVLTQSPSASGSPGQSVTISCTGTSSDVGGYNYVSWYQQLPGKAPKLMIYEVTKRPSGVPDRFSGSKSGNTASLTVSGLQAEDEADYYCSSFAGSNNHVVFGGGTKLTVL
Kd [1]: 6 nM
Kd [2]: 6 nM

B2: TRL1230 (antibody, V domains shown)
VH: QVQLVQSGGGLVKPGGSLRLSCGASGFNLSSYSMNWVRQAPGKGLEWVSSISSRSSYIYYADSVQGRFTISRDNAKNSLYLQMNSLRAEDTAIYYCARVSPSTYYYYGMDVWGQGTTVTVSS
VL: DIVLTQPSSVSVSPGQTARITCSGDELPKQYAYWYQQKPGQAPVLVIYKDNERPSGIPERFSGSSSGTTVTLTISGVQAEDEADYYCQSADSSGTYVVFGGGTKLTVL
OD [3]: 0.1 OD

B3: TRL1068 (antibody, V domains shown)
VH: QVQLVESGPGLVKPSETLSLTCRVSGDSNRPSYWSWIRQAPGKAMEWIGYVYDSGVTIYNPSLKGRVTISLDTSKTRFSLKLTSVIAADTAVYYCARERFDRTSYKSWWGQGTQVTVSS
VL: DIVLTQAPGTLSLSPGDRATLSCRASQRLGGTSLAWYQHRSGQAPRLILYGTSNRATDTPDRFSGSGSGTDFVLTISSLEPEDFAVYYCQQYGSPPYTFGQGTTLDIK
Affinity [4]: 5 pM
Affinity [5]: 0.01 nM
Affinity [6]: 6 pM
Affinity [7]: 5 pM
Affinity [8]: 0.012 nM
Affinity [9]: 6 pM
Affinity [10]: 9 pM
Affinity [11]: 0.012 nM
Affinity [12]: 0.05 nM
Affinity [13]: 6 pM
Affinity [14]: 0.012 nM
Affinity [15]: 9 pM
Affinity [16]: 2.1 nM
Affinity [17]: 3.5 nM
Affinity [18]: 2.6 nM
Affinity [19]: 0.26 nM
Affinity [20]: 0.36 nM
Affinity [21]: 3 nM

B4: TRL1338 (antibody, V domains shown)
VH: QLTLRESGPTLVKPTQTLTLTCTFSGFSLSTNGVGVGWIRQPPGKALEWLAIIYWDDDKRYSPSLKSRLTITKDTSKNQVVLTLTNMDPVDTGTYYCAHILGASNYWTGYLRYYFDYWGQGTLVTVST
VL: DIEMTQSPSVSVSPGQTARITCSGEPLAKQYAYWYQQKSGQAPVVVIYKDTERPSGIPERFSGSSSGTTVTLTISGVQAEDEADYHCESGDSSGTYPVFGGGTKLTVL
Kd [1]: 42 nM
Kd [2]: 42 nM
